Assay [1] deals with T1, human FcγRIIIaV extracellular domain, C-terminal His-tag (human, UniProt P08637 17-208).
T1 construct: also called FcgRIIIaV; not shown: His-tag added to C-terminus
Description: SPR (BIACORE); KD of parent SG1 / KD of variant.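 Further: relative to parent M103205H795-SG1 carrying the SG1 human heavy chain constant region.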 On the procedure: (§1) The kinetic analysis of interactions between these antibodies and FcγR was carried out using BIACORE® T200 or BIACORE® 4000 (GE Healthcare). HBS-EP+ (GE Healthcare) was used as the running buffer, and the measurement temperature was set to 25° C. A chip produced by immobilizing Protein A. Protein A/G or mouse anti-human IgG kappa light chain (BD Biosciences) onto a Series S Sensor Chip CM4 or CM5 (GE Healthcare) by the amine-coupling method was used. […] After the measurement, the antibody captured on the chip was washed off by allowing reaction with 10 mM glycine-HCl, pH1.5 and 25 mM NaOH so that the chip was regenerated and used repeatedly. The sensorgrams obtained as measurement results were analyzed by the 1:1 Langmuir binding model using the BIACORE® Evaluation Software to calculate the binding rate constant ka (L/mol/s) and dissociation rate constant kd (l/s), and the dissociation constant KD (mol/L) was calculated from these values. […] Regarding such interactions, KD values were calculated using the following 1:1 binding model described in BIACORE® T100 Software Handbook BR1006-48 Edition AE.
For orientation: In SPR one partner is held on a chip, and binding of the other changes the refractive index at the surface.

Assay [2] has as its target T2, human FcγRIIaH extracellular domain, C-terminal His-tag (human, UniProt P12318 34-217).
T2 construct: also called human FcγRIIa (type H); FcgRIIaH; not shown: His-tag added to C-terminus
T2 sequence: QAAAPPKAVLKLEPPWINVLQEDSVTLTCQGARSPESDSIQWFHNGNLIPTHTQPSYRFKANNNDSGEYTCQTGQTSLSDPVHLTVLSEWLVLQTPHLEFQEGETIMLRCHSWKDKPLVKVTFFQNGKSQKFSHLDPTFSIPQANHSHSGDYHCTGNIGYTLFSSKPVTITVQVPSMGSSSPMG
Description: SPR (BIACORE); KD of parent SG1 / KD of variant.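 Further: relative to parent M103205H795-SG1 carrying the SG1 human heavy chain constant region.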 On the procedure: as §1

Assay [3] addresses T3, cynomolgus monkey FcγRIIa3 extracellular domain, C-terminal His-tag (cynomolgus monkey).
T3 construct: also called cyno FcγRIIa3; cynoFcgRIIa3; not shown: His-tag added to C-terminus
T3 chain: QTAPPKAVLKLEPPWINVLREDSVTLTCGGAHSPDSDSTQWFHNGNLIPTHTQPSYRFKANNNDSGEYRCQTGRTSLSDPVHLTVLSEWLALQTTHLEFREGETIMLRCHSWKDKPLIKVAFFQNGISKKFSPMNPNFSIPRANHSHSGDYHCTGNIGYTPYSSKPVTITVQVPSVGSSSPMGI
Description: SPR (BIACORE); KD of parent SG1 / KD of variant.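 Further: relative to parent M103205H795-SG1 carrying the SG1 human heavy chain constant region.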 On the procedure:
as §1

The target in assay [4] is T4, cynomolgus monkey FcγRIIa2 extracellular domain, C-terminal His-tag (cynomolgus monkey).
T4 construct: also called cyno FcγRIIa2; cynoFcgRIIa2; not shown: His-tag added to C-terminus
T4 chain: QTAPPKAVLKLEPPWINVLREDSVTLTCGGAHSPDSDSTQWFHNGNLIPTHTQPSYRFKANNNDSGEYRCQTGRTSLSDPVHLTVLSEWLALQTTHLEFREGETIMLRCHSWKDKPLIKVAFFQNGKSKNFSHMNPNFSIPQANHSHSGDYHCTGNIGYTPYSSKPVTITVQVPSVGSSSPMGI
In words: SPR (BIACORE); KD of parent SG1 / KD of variant.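 Further: relative to parent M103205H795-SG1 carrying the SG1 human heavy chain constant region.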 On the procedure: as §1

For assay [5], the target named is T5, human FcγRIIb extracellular domain, C-terminal His-tag (human, UniProt P31994 43-217).
T5 construct: also called humanFcgRIIb; not shown: His-tag added to C-terminus
T5 sequence: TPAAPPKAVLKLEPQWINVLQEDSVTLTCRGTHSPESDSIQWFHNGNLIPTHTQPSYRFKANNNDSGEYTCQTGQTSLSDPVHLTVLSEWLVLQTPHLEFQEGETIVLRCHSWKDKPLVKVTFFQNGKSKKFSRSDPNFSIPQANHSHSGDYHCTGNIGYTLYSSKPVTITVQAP
Description: SPR (BIACORE); KD of parent SG1 / KD of variant. On the procedure: as §1

Assay [6] addresses T6, cynomolgus monkey FcγRIIIaS extracellular domain, C-terminal His-tag (cynomolgus monkey, UniProt A3RFZ7 21-206 (rhesus entry)).
T6 construct: also called cyno FcγRIIIaS; cynoFcγRIIIaS; not shown: His-tag added to C-terminus
Description: SPR (BIACORE); KD of parent SG1 / KD of variant. On the procedure:
as §1

The target of assay [7] is T7, cynomolgus monkey FcγRIIa1 extracellular domain, C-terminal His-tag (cynomolgus monkey).
T7 construct: also called cyno FcγRIIa1; cynoFcgRIIa1; not shown: His-tag added to C-terminus
T7 chain: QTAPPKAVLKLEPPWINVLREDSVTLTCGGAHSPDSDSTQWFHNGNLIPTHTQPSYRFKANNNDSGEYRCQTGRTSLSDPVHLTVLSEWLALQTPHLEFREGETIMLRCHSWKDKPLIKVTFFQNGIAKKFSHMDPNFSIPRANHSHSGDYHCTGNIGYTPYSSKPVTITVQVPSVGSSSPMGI
Description: SPR (BIACORE); KD of parent SG1 / KD of variant. On the procedure: as §1

Assay [8] concerns the target T8, human FcγRIIaR extracellular domain, C-terminal His-tag (human, UniProt P12318 34-217).
T8 construct: also called human FcγRIIa (type R); FcgRIIaR; not shown: His-tag added to C-terminus
T8 chain: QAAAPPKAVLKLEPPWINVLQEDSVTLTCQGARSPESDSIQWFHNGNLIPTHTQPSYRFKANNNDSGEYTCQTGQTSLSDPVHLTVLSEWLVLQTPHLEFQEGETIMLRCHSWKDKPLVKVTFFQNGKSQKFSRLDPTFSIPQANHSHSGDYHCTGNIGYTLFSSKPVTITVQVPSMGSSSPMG
In words: SPR (BIACORE); KD of parent SG1 / KD of variant. On the procedure: as §1

Assay [9] concerns the target T9, cynomolgus monkey FcγRIIb extracellular domain, C-terminal His-tag (cynomolgus monkey).
T9 construct: also called cyno FcγRIIb; cynoFcγRIIb; not shown: His-tag added to C-terminus
T9 chain: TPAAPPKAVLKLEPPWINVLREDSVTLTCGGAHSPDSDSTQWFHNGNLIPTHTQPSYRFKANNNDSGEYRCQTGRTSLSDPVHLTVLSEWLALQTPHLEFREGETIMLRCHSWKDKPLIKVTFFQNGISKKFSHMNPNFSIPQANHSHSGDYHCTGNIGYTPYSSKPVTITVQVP
Description: SPR (BIACORE); KD of parent SG1 / KD of variant. On the procedure: as §1

The target of assay [10] is T1, human FcγRIIIaV extracellular domain, …. In words: SPR (BIACORE), antibody captured, FcγR analyte. The method, then: as §1
Assay [11] has as its target T2, human FcγRIIaH extracellular domain, …. In words: SPR (BIACORE), antibody captured, FcγR analyte. The method, then:
as §1

Assay [12] deals with T3, cynomolgus monkey FcγRIIa3 …. In words: SPR (BIACORE), antibody captured, FcγR analyte. On the procedure:
as §1

Assay [13] deals with T4, cynomolgus monkey FcγRIIa2 …. In words: SPR (BIACORE), antibody captured, FcγR analyte. On the procedure:
as §1

Assay [14] deals with T5, human FcγRIIb extracellular domain, …. In words: SPR (BIACORE), antibody captured, FcγR analyte. The method, then: as §1
Assay [15] addresses T6, cynomolgus monkey FcγRIIIaS …. In words: SPR (BIACORE), antibody captured, FcγR analyte. The method, then:
as §1

The target of assay [16] is T7, cynomolgus monkey FcγRIIa1 …. In words: SPR (BIACORE), antibody captured, FcγR analyte. On the procedure:
as §1

The target of assay [17] is T8, human FcγRIIaR extracellular domain, …. Description: SPR (BIACORE), antibody captured, FcγR analyte. The method, then: as §1
The target of assay [18] is T9, cynomolgus monkey FcγRIIb extracellular …. Description: SPR (BIACORE), antibody captured, FcγR analyte. On the procedure: as §1

T6 sequence (A3RFZ7 21-206): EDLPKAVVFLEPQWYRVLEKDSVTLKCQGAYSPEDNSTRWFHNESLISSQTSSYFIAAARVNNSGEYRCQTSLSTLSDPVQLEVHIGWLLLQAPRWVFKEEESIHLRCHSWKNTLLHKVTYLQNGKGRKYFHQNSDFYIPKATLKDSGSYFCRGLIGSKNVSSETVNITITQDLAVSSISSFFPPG
T1 sequence (P08637 17-208 F176V): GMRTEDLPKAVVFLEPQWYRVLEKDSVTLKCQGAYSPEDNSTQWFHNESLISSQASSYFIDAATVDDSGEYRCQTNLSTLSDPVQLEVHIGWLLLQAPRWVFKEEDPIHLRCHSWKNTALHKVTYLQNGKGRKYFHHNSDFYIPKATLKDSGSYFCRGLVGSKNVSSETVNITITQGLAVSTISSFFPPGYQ

B1: M103205H795-SG1012 / M103202L889-SK1 (antibody, human IgG1, kappa)
heavy: QVTLKESGPVLVKPTETLTLTCTVSGIDLSHDDISWVRQAPGKGLEWVGIISYAGSTYYASWAKGRLTISKDTSKNQVVLTMTNMDPVDTATYYCARGVPAYSHGGDLWGQGTLVTVSSASTKGPSVFPLAPSSKSTSGGTAALGCLVKDYFPEPVTVSWNSGALTSGVHTFPAVLQSSGLYSLSSVVTVPSSSLGTQTYICNVNHKPSNTKVDKKVEPKSCDKTHTCPPCPAPELLNGPSVFLFPPKPKDTLMISRTPEVTCVVVDVSEEDPEVKFNWYVDGVEVHNAKTKPREEQYNSTYRVVSVLTVLHQDWLNGKEYKCKVSNKALPKPIEKTISKAKGQPREPQVYTLPPSREEMTKNQVSLTCLVKGFYPSDIAVEWESNGQPENNYKTTPMVLDSDGSFFLYSKLTVDKSRWQQGNVFSCSVMHEALHAHYTQKSLSLSP
light: DIVMTQSPATLSLSPGERATLSCTSSQSVYHANWLSWFQQKPGQPPKLLIYWASTLAYGVPSRFSGSGSGTDFTLTISSLQPEDAATYYCAGGYGGGRYAFGQGTKVEIKRTVAAPSVFIFPPSDEQLKSGTASVVCLLNNFYPREAKVQWKVDNALQSGNSQESVTEQDSKDSTYSLSSTLTLSKADYEKHKVYACEVTHQGLSSPVTKSFNRGEC
notes: the text says N434A was introduced into MY101 (which also has A330K); also called MS1032LO06-SG1012
For orientation: Kd means the constant that tells how readily two partners part at equilibrium. As to B1, the “KD fold (SG1 = 1)” value is 0.11 fold in assay [1]; 1.8 fold in [2]; 3.8 fold in assay [3]; 4.7 fold in assay [4]; 9.6 fold in assay [5]; 0.13 fold in assay [6]. The “KD fold (SG1 = 1)” value amounted to 4.4 fold in assay [7], 1.4 fold in assay [8] and 7.2 fold in [9]. The Kd stood at 5800 nM in assay [10]; 500 nM in assay [11]; 2300 nM in assay [12]; 1000 nM in assay [13]; 490 nM in assay [14]; 2100 nM in assay [15]. In addition, the figures for the Kd in [16], in assay [17] and in assay [18] were 1100 nM, 750 nM and 270 nM, respectively.

B2: M103205H795-SG1016 / M103202L889-SK1 (antibody, human IgG1, kappa)
heavy: QVTLKESGPVLVKPTETLTLTCTVSGIDLSHDDISWVRQAPGKGLEWVGIISYAGSTYYASWAKGRLTISKDTSKNQVVLTMTNMDPVDTATYYCARGVPAYSHGGDLWGQGTLVTVSSASTKGPSVFPLAPSSKSTSGGTAALGCLVKDYFPEPVTVSWNSGALTSGVHTFPAVLQSSGLYSLSSVVTVPSSSLGTQTYICNVNHKPSNTKVDKKVEPKSCDKTHTCPPCPAPELLNGPSVFLFPPKPKDTLMISRTPEVTCVVVDVSEEDPEVKFNWYVDGVEVHNAKTKPREEQYNSTYRVVSVLTVLHRDWLNGKEYKCKVSNKALPKPIEKTISKAKGQPREPQVYTLPPSREEMTKNQVSLTCLVKGFYPSDIAVEWESNGQPENNYKTTPMVLRSDGSFFLYSKLTVDKSRWQQGNVFSCSVMHEALHAHYTQKSLSLSP
light: DIVMTQSPATLSLSPGERATLSCTSSQSVYHANWLSWFQQKPGQPPKLLIYWASTLAYGVPSRFSGSGSGTDFTLTISSLQPEDAATYYCAGGYGGGRYAFGQGTKVEIKRTVAAPSVFIFPPSDEQLKSGTASVVCLLNNFYPREAKVQWKVDNALQSGNSQESVTEQDSKDSTYSLSSTLTLSKADYEKHKVYACEVTHQGLSSPVTKSFNRGEC
notes: the text says Q311R/D399K; also called MS1032LO06-SG1016
As to B2, the “KD fold (SG1 = 1)” value in [1] came to 0.06 fold; in assay [2] it was 1.5 fold; in assay [3], 3.9 fold; in assay [4], 4.1 fold; in assay [5] it was 8.7 fold; in assay [6], 0.12 fold. For the same molecule, the results for the “KD fold (SG1 = 1)” value in assay [7], in assay [8] and in assay [9] were 3.8 fold, 1.2 fold and 6 fold, respectively. Further, the Kd in assay [10] worked out at 10000 nM; in [11], 500 nM; in [12] it was 2200 nM; in assay [13] it was 1100 nM; in assay [14], 550 nM; in assay [15], 2400 nM. In addition, the Kd is 1300 nM in assay [16], 820 nM in assay [17] and 330 nM in assay [18].

The values above are taken from US20200317768A1 (published 2020).
